For assay [1], the target named is T1, S. cerevisiae Rrp45 (subunit of the crystallised Exo-9) (S. cerevisiae, UniProt Q05636 1-305).
T1 sequence: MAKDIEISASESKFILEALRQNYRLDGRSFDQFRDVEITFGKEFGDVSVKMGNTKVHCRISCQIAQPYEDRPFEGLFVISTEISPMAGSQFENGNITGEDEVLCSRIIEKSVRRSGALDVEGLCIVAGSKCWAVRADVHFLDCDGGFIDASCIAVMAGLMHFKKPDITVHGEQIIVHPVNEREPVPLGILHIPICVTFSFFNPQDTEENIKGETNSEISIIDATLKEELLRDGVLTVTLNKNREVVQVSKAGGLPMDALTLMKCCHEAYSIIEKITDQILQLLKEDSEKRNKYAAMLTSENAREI
In words: crystal structure.

For assay [2], the target named is S. cerevisiae Exo-9 core complex (recombinant, untagged) (S. cerevisiae, UniProt P46948;Q12277;P25359;Q05636;P53256;P48240;P38792;Q08285;P53859). Kind of assay: MST.

B1: S. cerevisiae Rrp40 (subunit of the crystallised Exo-9) (natural protein)
chain: MSTFIFPGDSFPVDPTTPVKLGPGIYCDPNTQEIRPVNTGVLHVSAKGKSGVQTAYIDYSSKRYIPSVNDFVIGVIIGTFSDSYKVSLQNFSSSVSLSYMAFPNASKKNRPTLQVGDLVYARVCTAEKELEAEIECFDSTTGRDAGFGILEDGMIIDVNLNFARQLLFNNDFPLLKVLAAHTKFEVAIGLNGKIWVKCEELSNTLACYRTIMECCQKNDTAAFKDIAKRQFKEILTVKEE
Take B1: the binding result in assay [1] is on record as “binds”.

B2: Mpp6^FL S184C labeled with red-maleimide (natural protein)
chain: MSANNGVTGKLSSRVMNMKFMKFGKTDDEESSNSNTPSNINSDVEPIEQKGKLFGLDDSAWDLNSYKDDLKKISGKEKKKVKRVVYKKRPNLIISNVGYSELRKPEGVISGRKTFGDNSDDSGSRKRKFDEGEQNEDEKRDAKDKEFTGSQDDGEDEYDLDKLFKDSIKKKKTNHNGKNKNRNCKK
modifications: cysteine-reactive fluorophore (red-maleimide) on the introduced cysteine 184
With B2, in assay [2], the equilibrium dissociation constant (Kd) is roughly 82 nM.

The record behind these values is paper PMC5603729 (Cell Reports, 2017).
